# Square brackets hold non-standard residues; d marks the D form. Ends that are not written are not given here. * marks the point of attachment. Palmitoyl = CCCCCCCCCCCCCCCC(=O)*; AEEA = NCCOCCOCC(=O)O
# B1: SEQ ID NO: 38 (peptide)
# peptide: Palmitoyl-KTKKTLRTGCRFGTCTVQKLAHQIYQFTDKDKDNSAPVDPSSPHSY-NH2
# modifications: ends and bridges not checked
# B2: SEQ ID NO: 93 (peptide)
# peptide: Ac-KGCRFGTCTVQKLAHQIYQFTDKDSAPVDPSSPHSY-NH2
# modifications: cysteine pairing not given here
# B3: SEQ ID NO: 43 (peptide)
# peptide: [AEEA]K(Palmitoyl)CRFGTCTVQKLAHQIYQFTDKDKDNSAPVDPSSPHSY-NH2
# modifications: ends and bridges not checked
# B4: SEQ ID NO: 34 (peptide)
# peptide: Palmitoyl-KGCRFGTCTVQKLAHQIYQFTDKDKDNVAPVDPSSPHSY-NH2
# modifications: ends and bridges not checked
# B5: SEQ ID NO: 40 (peptide)
# peptide: Palmitoyl-KTKKTLRTGCRFGTCTVQKLAHQIYQFTDKDKDNVAPVDPSSPHSY-NH2
# modifications: ends and bridges not checked
# B6: SEQ ID NO: 39 (peptide)
# peptide: Ac-TK(Palmitoyl)KTLRTGCRFGTCTVQKLAHQIYQFTDKDKDNSAPVDPSSPHSY-NH2
# modifications: ends and bridges not checked
# B7: SEQ ID NO: 211 (peptide)
# peptide: KGCRFGTCTVQKLAHQIYQFTDKDVAPRSKISPQGY
# modifications: miniPEG- at N-terminus; K(PAL); (D-Val) in ...GTCT(D-Val)QKL...; -NH2
# B8: SEQ ID NO: 41 (peptide)
# peptide: Ac-TK(Palmitoyl)KTLRTGCRFGTCTVQKLAHQIYQFTDKDKDNVAPVDPSSPHSY-NH2
# modifications: ends and bridges not checked
# B9: SEQ ID NO: 31 (peptide)
# peptide: Palmitoyl-KGCRFGTCTVQKLAHQIYQFTPAGRQDSAPVDPSSPHSY-NH2
# modifications: cysteine pairing not given here
# B10: SEQ ID NO: 65 (peptide)
# peptide: Ac-K(Palmitoyl)GCRFGTCTVQKLAHQIYQFTDKDKDNVAPRSKSSPHSY-NH2
# modifications: ends and bridges not checked
# B11: SEQ ID NO: 110 (peptide)
# peptide: Palmitoyl-KGCRFGTCTVQKLAHQIYQFTDKDAPVDPSSPHSY-NH2
# modifications: ends and bridges not checked
# B12: SEQ ID NO: 33 (peptide)
# peptide: Ac-K(Palmitoyl)GCRFGTCTVQKLAHQIYQFTPAGRQDSAPVDPSSPHSY-NH2
# modifications: cysteine pairing not given here
# B13: SEQ ID NO: 73 (peptide)
# peptide: KGCRFGTCTVQKLAHQIYQFTDKDKDNVAPRSKISPQGY
# modifications: Pal- at N-terminus; K(Pal); -NH2
# B14: SEQ ID NO: 36 (peptide)
# peptide: Palmitoyl-KGCRFGTCTVQKLAHQIYQFTDKGRQDSAPVDPSSPHSY-NH2
# modifications: ends and bridges not checked
# B15: SEQ ID NO: 35 (peptide)
# peptide: Palmitoyl-KGCRFGTCTVQKLAHQIYQFTDKDKQDSAPVDPSSPHSY-NH2
# modifications: ends and bridges not checked
# Target: CLR/RAMP1 receptor (UniProt Q16602 23-461; O60894 27-148, limits assumed)
# Sequence (Q16602 23-461 limits assumed, chain 1 of 2): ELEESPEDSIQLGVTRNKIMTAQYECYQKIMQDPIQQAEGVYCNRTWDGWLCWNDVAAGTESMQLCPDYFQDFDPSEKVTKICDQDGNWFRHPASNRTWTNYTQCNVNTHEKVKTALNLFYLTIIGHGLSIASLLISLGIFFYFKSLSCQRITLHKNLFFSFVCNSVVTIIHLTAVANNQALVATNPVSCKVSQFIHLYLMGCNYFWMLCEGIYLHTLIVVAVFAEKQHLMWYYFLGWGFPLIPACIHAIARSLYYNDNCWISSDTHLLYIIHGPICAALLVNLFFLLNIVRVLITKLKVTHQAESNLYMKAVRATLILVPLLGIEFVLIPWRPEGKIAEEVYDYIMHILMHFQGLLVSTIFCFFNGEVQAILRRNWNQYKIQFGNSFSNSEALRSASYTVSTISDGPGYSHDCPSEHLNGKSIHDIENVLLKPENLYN
# Sequence (O60894 27-148 limits assumed, chain 2 of 2): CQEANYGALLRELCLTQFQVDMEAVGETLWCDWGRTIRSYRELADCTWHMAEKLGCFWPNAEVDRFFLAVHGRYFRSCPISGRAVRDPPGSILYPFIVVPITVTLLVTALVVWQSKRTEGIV
# Test: cell-based or functional assay
CLR/RAMP1 EC50 [nM],CLR/RAMP1 Max Activity,Binder
0.5,–,B1
771,–,B2
0.5,39 % of positive control,B3
0.2,–,B4
2,–,B5
0.2,–,B6
8,–,B7
0.4,–,B8
0.8,–,B9
234,–,B10
43,–,B11
0.3,–,B12
34,–,B13
0.6,–,B14
0.8,–,B15

# Target: CLR/RAMP2 receptor (UniProt Q16602 23-461; O60895 43-175, limits assumed)
# Sequence (Q16602 23-461 limits assumed, chain 1 of 2): as the sequence (Q16602 23-461 limits assumed, chain 1 of 2) above
# Sequence (O60895 43-175 limits assumed, chain 2 of 2): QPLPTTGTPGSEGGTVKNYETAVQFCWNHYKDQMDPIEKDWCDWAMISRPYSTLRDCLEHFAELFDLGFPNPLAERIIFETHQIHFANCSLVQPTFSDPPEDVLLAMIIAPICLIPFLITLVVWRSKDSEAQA
# Test: cell-based or functional assay
CLR/RAMP2 EC50 [nM],CLR/RAMP2 Max Activity,Binder
0.7,–,B1
17,–,B2
0.2,30 % of positive control,B3
0.7,–,B4
1,–,B5
0.5,–,B6
0.9,22 % of positive control,B7
0.9,–,B8
0.9,–,B9
19,–,B10
6.4,–,B11
0.4,–,B12
49,–,B13
0.9,–,B14
1,–,B15
